Measured values published in US20180282808A1 (ADAPTIVE BIOTECHNOLOGIES, published 2018).

T1: WT1 (Wilms' tumor antigen-1) peptide on HLA-A*02:01 (human)
T1 peptide: YMLDLQPETT

B1: eJH30_WT1C_8 (TCR, V domains shown)
V domain 1: GQQLNQSPQSMFIQEGEDVSMNCTSSSIFNTWLWYKQEPGEGPVLLIALYKAGELTSNGRLTAQFGITRKDSFLNISASIPSDVGIYFCAGRGSQGNLIFGKGTKLSVKP
V domain 2: DTAVSQTPKYLVTQMGNDKSIKCEQNLGHDTMYWYKQDSKKFLKIMFSYNNKELIINETVPNRFSPKSPDKAHLNLHINSLELGDSAVYFCASSHWQETQYFGPGTRLLVLE
B2: eJH64_WT1C_6 (TCR, V domains shown)
Valpha: AQSVAQPEDQVNVAEGNPLTVKCTYSVSGNPYLFWYVQYPNRGLQFLLKYITGDNLVKGSYGFEAEFNKSQTSFHLKKPSALVSDSALYFCAVRDMRYGGATNKLIFGTGTLLAVQP
Vbeta: ETGVTQTPRHLVMGMTNKKSLKCEQHLGHNAMYWYKQSAKKPLELMFVYSLEERVENNSVPSRFSPECPNSSHLFLHLHTLQPEDSALYLCASSQDGLAGAASFNNEQFFGPGTRLTVL
B3: eJH30_WT1C_5 (TCR, V domains shown)
V domain 1: GENVEQHPSTLSVQEGDSAVIKCTYSDSASNYFPWYKQELGKGPQLIIDIRSNVGEKKDQRIAVTLNKTAKHFSLHITETQPEDSAVYFCAAGGRDDKIIFGKGTRLHILP
V domain 2: EPEVTQTPSHQVTQMGQEVILRCVPISNHLYFYWYRQILGQKVEFLVSFYNNEISEKSEIFDDQFSVERPDGSNFTLKIRSTKLEDSAMYFCASSERLGTMAYNSPLHFGNGTRLTVTE

Experiments:
[1] = target: WT1 peptide (…; SEQ ID NO: 97) presented on peptide-pulsed T2 cells (UniProt P61769 21-119, limits assumed); experiment: cell-based or functional assay
[2] = target: T1, WT1 (Wilms' tumor antigen-1) peptide on …; experiment: full-length, on cells
[3] = target: WT1 peptide (…; SEQ ID NO: 97) presented on peptide-pulsed T2 cells (UniProt P61769); experiment: cell-based or functional assay; conditions: scale: nM

Binder | EC50 (nM) of functional avidity: CD69 MFI of TCR+ JRT3 cells against WT1-pep concentration pulsed on T2 cells [1] [nM] | EC50 of peptide [2] [nM] | EC50 of functional avidity: CD69 MFI of TCR+ cells against WT1 10mer peptide concentration pulsed on T2 cells [3]
B1 | 10.9 | – | –
B2 | – | 0.7 | 0.7
B3 | 51.9 | – | –
